From article doi:10.1101/313882, “Cryptic adaptor protein interactions regulate DNA replication initiation” (bioRxiv, 2018)

Key:
[1] = target: the molecule itself; experiment: SEC; size exclusion chromatogram of wild type DnaD^WHD or the ΔNT variant, absorbance at 280 nm (S2 Fig B)
[2] = target: the molecule itself; experiment: cross-linking; purified DnaD^WHD or variant at 16 uM with 0.03%, 0.06%, 0.12% glutaraldehyde; 20 mM HEPES pH 7.7, 150 mM NaCl, 1 mM DTT, 1 mM EDTA, 5% glycerol; 15 minutes at room temperature; SDS-polyacrylamide gel, coomassie blue

| Protein | stoichiometry N [2] | further results |
| --- | --- | --- |
| purified DnaD^WHD ΔNT variant (B. subtilis) (domain or fragment, UniProt P39787 19-128, looked up, DnaD, B. subtilis, winged helix domain (1-128) without the N-terminal extension (residues 1-18); The limits 19-128 are worked out from the printed extension (1-18) and the limits of DnaD^WHD (1-128); the purification is that told for DnaD^WHD and its variants; source: E. coli BL21 (DE3), purified (amylose, Ulp1 digestion, HiTrap Q, Sephacryl S-200); not shown: HIS6, N-terminal, cleaved; MBP, …) NLLLTHYKQLGLNETELILLLKIKMHLEKGSYFPTPNQLQEGMSISVEECTNRLRMFIQKGFLFIEECEDQNGIKFEKYSLQPLWGKLYEYIQLAQNQTQERKAEGEQKS | – | stoichiometry N [1]: 2 |
| purified DnaD^WHD F51A (B. subtilis) (domain or fragment, UniProt P39787 1-128, looked up, DnaD, B. subtilis, winged helix domain, amino acids 1-128, F51A; source: E. coli BL21 (DE3), purified (amylose, Ulp1 digestion, HiTrap Q, Sephacryl S-200); not shown: HIS6, N-terminal, cleaved; MBP, N-terminal, cleaved; SUMO, N-terminal, cleaved) MKKQQFIDMQEQGTSTIPNLLLTHYKQLGLNETELILLLKIKMHLEKGSYAPTPNQLQEGMSISVEECTNRLRMFIQKGFLFIEECEDQNGIKFEKYSLQPLWGKLYEYIQLAQNQTQERKAEGEQKS | 4 | – |
| purified DnaD^WHD, wild type (B. subtilis) (domain or fragment, UniProt P39787 1-128, looked up, DnaD, B. subtilis, winged helix domain, amino acids 1-128; native N-terminus after Ulp1; also called WT; source: E. coli BL21 (DE3), purified (amylose, Ulp1 digestion, HiTrap Q, Sephacryl S-200); not shown: HIS6, N-terminal, cleaved; MBP, N-terminal, cleaved; SUMO, N-terminal, cleaved) MKKQQFIDMQEQGTSTIPNLLLTHYKQLGLNETELILLLKIKMHLEKGSYFPTPNQLQEGMSISVEECTNRLRMFIQKGFLFIEECEDQNGIKFEKYSLQPLWGKLYEYIQLAQNQTQERKAEGEQKS | – | binding result [2]: binds |
| purified DnaD^WHD I83A (B. subtilis) (domain or fragment, UniProt P39787 1-128, looked up, DnaD, B. subtilis, winged helix domain, amino acids 1-128, I83A; source: E. coli BL21 (DE3), purified (amylose, Ulp1 digestion, HiTrap Q, Sephacryl S-200); not shown: HIS6, N-terminal, cleaved; MBP, N-terminal, cleaved; SUMO, N-terminal, cleaved) MKKQQFIDMQEQGTSTIPNLLLTHYKQLGLNETELILLLKIKMHLEKGSYFPTPNQLQEGMSISVEECTNRLRMFIQKGFLFAEECEDQNGIKFEKYSLQPLWGKLYEYIQLAQNQTQERKAEGEQKS | 4 | – |
